Measured values taken from patent US20110008492.

B1: bovine (calf) chymosin B, recombinant (protein)
chain: GEVASVPLTNYLDSQYFGKIYLGTPPQEFTVLFDTGSSDFWVPSIYCKSNACKNHQRFDPRKSSTFQNLGKPLSIHYGTGSMQGILGYDTVTVSNIVDIQQTVGLSTQEPGDVFTYAEFDGILGMAYPSLASEYSIPVFDNMMNRHLVAQDLFSVYMDRNGQESMLTLGAIDPSYYTGSLHWVPVTVQQYWQFTVDSVTISGVVVACEGGCQAILDTGTSKLVGPSSDILNIQQAIGATQNQYGEFDIDCDNLSYMPTVVFEINGKMYPLTPSAYTSQDQGFCTSGFQSENHSQKWILGDVFIREYYSVFDRANNLVGLAKAI
B2: camel chymosin (Camelus dromedarius chymosin, recombinantly produced) (protein)
chain: GKVAREPLTSYLDSQYFGKIYIGTPPQEFTVVFDTGSSDLWVPSIYCKSNVCKNHHRFDPRKSSTFRNLGKPLSIHYGTGSMEGFLGYDTVTVSNIVDPNQTVGLSTEQPGEVFTYSEFDGILGLAYPSLASEYSVPVFDNMMDRHLVARDLFSVYMDRNGQGSMLTLGAIDPSYYTGSLHWVPVTLQQYWQFTVDSVTINGVAVACVGGCQAILDTGTSVLFGPSSDILKIQMAIGATENRYGEFDVNCGNLRSMPTVVFEINGRDYPLSPSAYTSKDQGFCTSGFQGDNNSELWILGDVFIREYYSVFDRANNRVGLAKAI

Molecular target: kappa-casein of bovine (cow's) milk, P02668
Sequence (P02668 22-190): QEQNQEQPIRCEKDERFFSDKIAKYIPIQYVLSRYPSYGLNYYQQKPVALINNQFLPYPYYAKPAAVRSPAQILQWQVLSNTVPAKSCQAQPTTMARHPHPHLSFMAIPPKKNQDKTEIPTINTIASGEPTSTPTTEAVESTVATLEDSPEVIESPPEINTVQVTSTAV

Row | Protein | Specific activity (IMCU/mg) | Time to clotting [min]
1 | B1 | 223 | 12 to 13
2 | B2 | 462 | 12 to 13
